Results on two sequences are retold here after article PMC10113246.

Where a chain is given by its changes, count along the chain named.

Common to all, as to test: SPR
Set-up in all cases: unit not given here
Holding throughout (conditions): SPR DBD-TD: 25 mM HEPES pH 7.5, 200 mM NaCl, 0.5 mM TCEP, 0.005% Tween-20, SPR DBD: 10 mM HEPES pH 7.5, 150 mM NaCl, 0.2 mM TCEP

One data set deals with T1, p63 DBD-TD K193E K232E (UniProt Q9H3D4).
T1 sequence: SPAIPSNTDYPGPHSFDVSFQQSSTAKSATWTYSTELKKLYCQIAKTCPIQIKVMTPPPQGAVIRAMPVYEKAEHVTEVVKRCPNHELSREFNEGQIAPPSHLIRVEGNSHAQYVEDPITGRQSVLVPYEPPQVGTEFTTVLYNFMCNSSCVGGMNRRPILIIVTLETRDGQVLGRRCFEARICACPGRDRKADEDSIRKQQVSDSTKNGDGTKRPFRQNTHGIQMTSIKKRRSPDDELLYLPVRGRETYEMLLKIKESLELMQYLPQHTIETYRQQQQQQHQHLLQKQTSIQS

The next data set has as its target T2, p63 DBD-TD R227Q R266Q (UniProt Q9H3D4).
T2 sequence: T1 sequence with E71K, R105Q

In the next data set the target is T3, p63 DBD-TD R280H R319H (UniProt Q9H3D4).
T3 sequence: T1 sequence with E71K, R158H

A further data set deals with T4, p63 DBD-TD R280S R319S (UniProt Q9H3D4).
T4 sequence: T1 sequence with E71K, R158S

Another data set has as its target T5, p63 DBD-TD R298Q R337Q (UniProt Q9H3D4).
T5 sequence: T1 sequence with E71K, R176Q

The target in a further data set is T6, p63 DBD-TD R304W R343W (UniProt Q9H3D4).
T6 sequence: T1 sequence with E71K, R182W

The next data set has as its target T7, p63 DBD-TD WT (UniProt Q9H3D4).
T7 sequence: T1 sequence with E71K

The next data set deals with T8, p63 DBD H208Y H247Y (UniProt Q9H3D4).
T8 sequence: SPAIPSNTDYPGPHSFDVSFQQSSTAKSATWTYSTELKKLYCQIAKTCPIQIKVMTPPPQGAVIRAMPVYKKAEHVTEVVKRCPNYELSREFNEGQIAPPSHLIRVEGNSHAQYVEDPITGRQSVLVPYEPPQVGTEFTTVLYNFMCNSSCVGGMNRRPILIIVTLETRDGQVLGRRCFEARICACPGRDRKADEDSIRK

Another data set has as its target T9, p63 DBD I172A I211A (UniProt Q9H3D4).
T9 sequence: T8 sequence with I50A, Y86H

The target of another data set is T10, p63 DBD R204W R243W (UniProt Q9H3D4).
T10 sequence: T8 sequence with R82W, Y86H

The next data set concerns the target T11, p63 DBD R227Q R266Q (UniProt Q9H3D4).
T11 sequence: T8 sequence with Y86H, R105Q

For a further data set, the target named is T12, p63 DBD R279H R318H (UniProt Q9H3D4).
T12 sequence: T8 sequence with Y86H, R157H

Another data set has as its target T13, p63 DBD R280S R319S (UniProt Q9H3D4).
T13 sequence: T8 sequence with Y86H, R158S

In a further data set the target is T14, p63 DBD R298Q R337Q (UniProt Q9H3D4).
T14 sequence: T8 sequence with Y86H, R176Q

Another data set addresses T15, p63 DBD R304W R343W (UniProt Q9H3D4).
T15 sequence: T8 sequence with Y86H, R182W

For the next data set, the target named is T16, p63 DBD V202M V241M (UniProt Q9H3D4).
T16 sequence: T8 sequence with V80M, Y86H

The next data set has as its target T17, p63 DBD WT (UniProt Q9H3D4).
T17 sequence: T8 sequence with Y86H

In another data set the target is T18, p63 DBD Y192C Y231C (UniProt Q9H3D4).
T18 sequence: T8 sequence with Y70C, Y86H

For “TTTTTTTTTTTGAACATGTCCCAACATGTTG / CAACATGTTGGGACATGTTC [p21 response element (SPR)]”, the Kd was 9920 in the data set with p63 DBD-TD K193E K232E; 515 with p63 DBD-TD R227Q R266Q; 1120 in the data set with p63 DBD-TD R280H R319H; 11800 with p63 DBD-TD R280S R319S; 435 in the data set with p63 DBD-TD R298Q R337Q; 27000 with p63 DBD-TD R304W R343W. In the data set with p63 DBD-TD WT, this sequence returned a Kd of 67.9.
As to “TTTTTTTTTTTAAACATGTTTAAACATGTTT / AAACATGTTTAAACATGTTT [20 bp p63 consensus sequence (SPR)]”, the Kd with p63 DBD H208Y H247Y was found to be 2060; with p63 DBD I172A I211A, 33.7; in the data set with p63 DBD R204W R243W, 510; with p63 DBD R227Q R266Q, 120; in the data set with p63 DBD R279H R318H it was 202; in the data set with p63 DBD R280S R319S, 351000. Further, the Kd with p63 DBD R298Q R337Q is 90.8; in the data set with p63 DBD R304W R343W, 220; in the data set with p63 DBD V202M V241M, 83300; with p63 DBD WT, 30.4; in the data set with p63 DBD Y192C Y231C, 1240.
